# Results published in the DeepSol protein solubility set.
# Experiment: soluble on expression in E. coli; label from the status in PepcDB or PDB records
row,Sequence,soluble on expression in E. coli
1,MDEVGVASEHLPDLRDRTGHAVNLAVWGDHGPVLVRWDYGAHALPITIRVGATMPLLTSAIGRVYLAHLPATMTTSIVETELETLGTNAPSKSDVARLRATVLEQGVATISGEVIPGVMSVAAPVFPAGQSIPLAVAVALPSSLGDTATVAEVTLELLRTTKAISEDYGSVGGAAGGPIA,not soluble
2,MDEYRELISVLPLETVEYAFAYGSGAIQQQNEDKSEKMVDFVIVTKNAQEFHRDNILKNPQHYSLLRLMGPKMIEKIQCNFAARVYYNTHVKVGKRKIKYGVISYENVKQDLLDWRWIYISGRLHKPVLEVIKPRQDMCDLVTENRRSALHSSLLLLPESFTLKQLFHKIVGLSYTGDFRMVVGEDKNKINKIVEGNYEELLRVYEPLMNDDARLSVMSPAKLIQDGSTTAIYHRLNLLPSEVLNRIQKNMNRVQKRQRDAEEVIFSLAHRHDVAATVETAIGGIIRPVSLSQTAKNAFSAGVTRSIIYSMAKMSKFLKSK,not soluble
3,MDFAVMKQVKNTGLLQSEELCQYILRTSVYPREAGFLKELREANESHPDSYMSTSPLAGQLMSFVLKLVNAKKTIEVGVFTGYSLLLTALSIPDDGKITAIDFDREAYEIGLPFIRKAGVEHKINFIESDAMLALDNLLQGQESEGSYDFGFVDADKPNYIKYHERLMKLVKVGGIVAYDNTLWGGTVAQPESEVPDFMKENREAVIELNKLLAADPRIEIVHLPLGDGITFCRRLY,soluble
4,MDFPCLWLGLLLPLVAALDFNYHRQEGMEAFLKTVAQNYSSVTHLHSIGKSVKGRNLWVLVVGRFPKEHRIGIPEFKYVANMHGDETVGRELLLHLIDYLVTSDGKDPEITNLINSTRIHIMPSMNPDGFEAVKKPDCYYSIGRENYNQYDLNRNFPDAFEYNNVSRQPETVAVMKWLKTETFVLSANLHGGALVASYPFDNGVQATGALYSRSLTPDDDVFQYLAHTYASRNPNMKKGDECKNKMNFPNGVTNGYSWYPLQGGMQDYNYIWAQCFEITLELSCCKYPREEKLPSFWNNNKASLIEYIKQVHLGVKGQVFDQNGNPLPNVIVEVQDRKHICPYRTNKYGEYYLLLLPGSYIINVTVPGHDPHITKVIIPEKSQNFSALKKDILLPFQGQLDSIPVSNPSCPMIPLYRNLPDHSAATKPSLFLFLVSLLHIFFK,soluble
5,MDFPPTKLDYHVDMFNLQSHSRFLSLFKAQDGRIALILESTVFHPQGGGQPSDTGLIVFSGSDLKFSVQDVLHYGVFEGSNPESGIDSEKGKEVYLTVDESRRKLNSRQAVEDCSHCYAWHGWNKISDVWLHSAGHLLDMCMQKVGLGHLEPGKGYHFPDGPFVEYKGSVPQEEFQVKQKELEAEANELISKGGKVYAAILPYEEASVLCGGSLPDYISKGSTPRIIKLGDSPGCPCGGTHVSNLSDIISMKITQMRTKKGMTKVFYTIAS,soluble
6,MDFQHWLHEAVNQLRDSDSPRRDAEILLEYVTGKGRTYIMAFGETPLTDVQQQQLADLLQRRKQGEPIAYLTGLREFWSLPLFVSPATLIPRPDTECLVEQALARLPVKTCRILDLGTGTGAIALALACERPDCEVTAVDRMPDAVALAIRNAEHLAIRNVRILQSCWFSALSGQQFDMIVSNPPYIDAQDPHLSEGDVRFEPRSALVADENGMADLTHIIDNARQMLTPGGFLLLEHGWQQGEAVRAVFRRSGYSDVETCRDYGGNERVTCGRFTP,not soluble
7,MDGELKNLKCNISQLAAITGLHRQTVVSRLSGVPLAPGSNEKNKLYLLTDVIRVLMEAPVSQAAEHQDPNKMTPKERKDWFDSEKGRLWLEKEMKQVVPLPEVRQQMAAIVKAITQVLEVWPDKLERDKGWSADQLNEAQDVVDEVRILLVKAIQETADDDGE,not soluble
8,MDGRRLVVRHGADTSVDTVWNILTDTDCWADWGPSVTAVETATRYIDDGTTGRVCVAGAVWLPFEVTACTPYRWTWTVARLPATGHFVEERAGGSVVGFEIPPLATGYAPVCARACQRIATLAQQRDALEHHHHHH,soluble
9,MDHIVLTHVFNGGSAESAALCPQDKIIALDGYACTDFAAQWARYHVRAKINIHFFRAGILRQTVLTVQATALEHHHHHH,not soluble
10,MDHVHKSTTTDEDERNSGRAIDRHNPIIKDGRRSFADDFIKLPTSAEDGEMSNKKLEIYKGRRSITGRRSTGGGGGGGAAALLKLITNDIGLARKSFSCVARPACDLIKTPVGSTRYLLGSDPDSITGSVDQDPAKTVEAEAPAGEDKTLTEKKTTCGDTDQVSCFVVSIMSGINVNKW,not soluble
11,MDIAVQLVDSGGGTLQAGKSLRLSCAISGLAFDGGAMGSEHRLTAGAMGWFRQAPGKDREFVAAISPRTDETYYAESLEGRFSVSRDAAATMVFLQADNVRLDDTASYYCAADEDVTPRVMGVIPHADHWGQGTLVTVSSAAALEHHHHHH,soluble
12,MDIPQTKQDLELPKLAGTWHSMAMATNNISLMATLKAPLRVHITSLLPTPEDNLEIVLHRWENNSCVEKKVLGEKTENPKKFKINYTVANEATLLDTDYDNFLFLCLQDTTTPIQSMMCQYLARVLVEDDEIMQGFIRAFRPLPRHLWYLLDLKQMEEPCRF,soluble
13,MDIQIKRAYEPADPADGCRILVDRLWPRGLTKQQVACDLWLKEIAPTADLRKWFNHDPAKWAEFQRRYRDELSVNPCVKELLDRAAKGRLTLLYGARDAECNQAVVLRDYLLERN,not soluble
14,MDIRKFFGVIPSGKKLVSETVKKNEKTKSDEETLKAKKGIKEIKVNSSRKEDDFKQKQPSKKKRIIYDSDSESEETLQVKNAKKPPEKLPVSSKPGKISRQDPVTYISETDEEDDFMCKKAASKSKENGRSTNSHLGTSNMKKNEENTKTKNKPLSPIKLTPTSVLDYFGTGSVQRSNKKMVASKRKELSQNTDESGLNDEAIAKQLQLDEDAELERQLHEDEEFARTLAMLDEEPKTKKARKDTEAGETFSSVQANLSKAEKHKYPHKVKTAQVSDERKSYSPRKQSKYESSKESQQHSKSSADKIGEVSSPKASSKLAIMKRKEESSYKEIEPVASKRKENAIKLKGETKTPKKTKSSPAKKESVSPEDSEKKRTNYQAYRSYLNREGPKALGSKEIPKGAENCLEGLIFVITGVLESIERDEAKSLIERYGGKVTGNVSKKTNYLVMGRDSGQSKSDKAAALGTKIIDEDGLLNLIRTMPGKKSKYEIAVETEMKKESKLERTPQKNVQGKRKISPSKKESESKKSRPTSKRDSLAKTIKKETDVFWKSLDFKEQVAEETSGDSKARNLADDSSENKVENLLWVDKYKPTSLKTIIGQQGDQSCANKLLRWLRNWQKSSSEDKKHAKFGKFSGKDDGSSFKAALLSGPPGVGKTTTASLVCQELGYSYVELNASDTRSKSSLKAIVAESLNNTSIKGFYSNGAASSVSTKHALIMDEVDGMAGNEDRGGIQELIGLIKHTKIPIICMCNDRNHPKIRSLVHYCFDLRFQRPRVEQIKGAMMSIAFKEGLKIPPPAMNEIILGANQDIRQVLHNLSMWCARSKALTYDQAKADSHRAKKDIKMGPFDVARKVFAAGEETAHMSLVDKSDLFFHDYSIAPLFVQENYIHVKPVAAGGDMKKHLMLLSRAADSICDGDLVDSQIRSKQNWSLLPAQAIYASVLPGELMRGYMTQFPTFPSWLGKHSSTGKHDRIVQDLALHMSLRTYSSKRTVNMDYLSLLRDALVQPLTSQGVDGVQDVVALMDTYYLMKEDFENIMEISSWGGKPSPFSKLDPKVKAAFTRAYNKEAHLTPYSLQAIKASRHSTSPSLDSEYNEELNEDDSQSDEKDQDAIETDAMIKKKTKSSKPSKPEKDKEPRKGKGKSSKK,soluble
15,MDKGKGSKRSTPSLRAKKKTGTDRQKPSVKQNASQNSKKSSRQKKTPSVGKEREQATDKKREIEKKPQEKTALDEQQRKAQTETISNLEILPDKNPAKMDDGYEDFGPGAAAR,not soluble
16,MDKHQQAIITVSAYITNDTGEVLLVKSYDRSDTWEMPGGQVEPGEPLDRAVHREVYEETGVDIRLIGVSGVYYNETKNIINIVFKATYVKGNVSPQPEEIQKAKFVLIDESNIDEYVTWPHLKSRVLDAMKRECSVPYETWVMNPSRLSARVGR,not soluble
17,MDKILGIKFRDYGQVYYFLAGEAEVSLGDRVIVETDQGQGIGEVIAVRDDRPSDAGDEELQPILRVAEGEDLERAETNEAMGAEAAAYCRECIRARNLDMKLVDVEVFFDLSKLIFYFTAPSRIDFRELVKDLVKHYRTRIELRQIGVRHETQMIGAVGNCGMVCCCRRYLRKFAPVTIKMAKEQNLFLNPAKISGICGRLLCCLSYEQENYEEFHRSCPRLGKKYMTNRGPVKVLRANMFRNSLMAFTDTGEEIEISLDEWQQLDPRRPDQQPQQARPPRRDRPEGGSARDGNGDRAPAPSSDRAAGATGGEAARHGGGRAGERSDRGGRPDRAERADRRGMPHGDVPGSGETPPAGGEAEADAPSLHAAGVEFATEQPAPFDTSPDGGAVMGMEQVEALEHHHHHH,not soluble
18,MDKKTACAHVAEPCEFSYSTRDAIIYALGVGARAKEDLCYVYENHEDFKVLPSYIVAPGFQAHTLMDWPGVEFDLQRVLHGEQYIEVYQPLSAEGKLKSEARVVDILDKGSGALILGNVTTYDENGKKIAMQQFSTFQTGSGNFGGDRTSPHEIKAATVPDRAPDAVIEQKTTVDQAALYRLGSGDMNPLHVDPEFAKMSGFKTPILHGLCSLGFATRHVIAAWAGNDSDKFKAIKVRFSSPVLPGQTLVTETWKNGKRIIFQMKVKETGKIVISNAFIDLHEASELPTVPIDLASKL,not soluble
19,MDKLKVAELFAGVGGFRLGLENTKEKIFDVTWANQWEPSKKIQHAFDCYNSRFITGEHVNKDIALISDEEIANTKADMVVGGFPCQDYSVARSLSGELGIQGKKGVLFWQIIRFIQNTYPKYLLLENVDRLLKSPSSQRGRDFGVMLSTLNELGYNVEWRVINAADYGNAQRRRRVFIFGYKQDLEHHHHHH,soluble
20,MDKMVSYLFKGEVKNPYVFLVLGKDKEIEHTVRTDVIVVGVLDWKKGNLSFVSIPRDLMIEGKKINAIYNTYGMEKLFQIIESLLGQKPDSYVIFNYEAFKILVDELGPIEVIPNEVMFYEDLSQNLVIDFKPGVPYKLNGEQLLAYIRYRKDSMGDLARIERQKDVLKKLLSKALSRNPLEISVLYKKISPYIETDIGLPEILTLFSKLKNSVRVSFSTLPYNVDSDGSIFVDEKRLVSFKENLIGSSVQEKYRVNFLVVNTSSLVSRVFEANLRGVWKDRVGFEPDRVVWEDVGISQKFEGDHVFIGEPEKEDYILEILRKAHPSRHFTVHRFDRPEDYTMYYTILESLAKNRIYPDFPVSALILIDDFRELEHHHHHH,soluble
21,MDLFPVLKELAQKTPSKILLIVLDGVGGLPLEPGGPTELEAAKTPNLDRLAEESALGLLTPVYPGLAPGSGPGHLALFGYDPFRYVVGRGALSALGLGADFREGDVALRGNFATLDPEGKVVDRRAGRPPTEENQRVVAKLKEAIPRIEDVEVHFYTESEHRFLVVLRGEGLGDAVTDTDPQKTGLPPLKAKALDEASERTARLVNLLSERIREVLKDEPRMNGALFRGASKKPSFPRMQEVYKLTPAAIASYPMYKGLASLVGMEVLPVEGEGDALEGKLKALKENWGRYDFFYFHVKKTDAMGEDGNFHGKVEKVELFDALLPEILALGPDVLAITGDHSTPALLKAHSWHPVPLLLKAPYLRADEARRFTEREAQRGSLGHLRGMELMPLLLAHAGKLLKYGALEHHHHHH,not soluble
22,MDLKQYITIVPDFPKPGIMFKDITTLMDNGPAYKYATDQIVQYAREKQIEIVVGPEARGFIIGCPVAYALGVGFAPVRKEGKLPREVVRVEYGLEYGTDVLTMHKDAIKPGQRVLITDDLLATGGTMRATIDLVEQLGGVVAGLAFLIELTELGGRKKLEGYDILTLMQF,soluble
